The target in experiment [1] is HER3 on tumor cell lines (NCI-N87, MDA-MB-468, MDA-MB-453, HCC1569 and other cells with different HER3 surface levels) (UniProt P21860). The experiment can be described thus: cell-based or functional assay.
For experiment [2], the target named is HER3 on tumor cell lines (NCI-N87, MDA-MB-468, MDA-MB-453, HCC1569 and other cells with different HER3 … (UniProt P21860 20-1342, limits assumed)). The experiment can be described thus: cell-based or functional assay.
Experiment [3] has as its target T1, human HER3-huFc (human, UniProt P21860 20-643).
T1 construct: also called huHER3; not shown: human Fc (huFc)
The experiment can be described thus: ELISA after 7 days at 40 °C. As to the method: (§1) Antibody stability test: the purified antibody at 5 mg/mL was stored at 4° C. as regular practice, incubated at 40° C. for 7 days and 14 days for heat stability evaluation, transferred to a glycine solution at pH 3.5 for regeneration, and stored for 2, 4 and 6 h for acid stability evaluation, or subjected to repeated freeze-thaw treatments for 4 or 6 cycles for freeze-thaw stability evaluation. Aggregation was measured by SEC-HPLC, and binding affinity was determined by ELISA.
(§2) The chimeric antibody 3F8 was subjected to parallel assay.

The target in experiment [4] is T1, human HER3-huFc. The experiment can be described thus: ELISA, 0 freeze-thaw cycles.
Experiment [5] addresses T1, human HER3-huFc. Briefly: ELISA after 5 freeze-thaw cycles.
Experiment [6] has as its target T1, human HER3-huFc. The experiment can be described thus: ELISA after 3 freeze-thaw cycles.
The target in a further experiment is T2, His-HER3 (UniProt P21860 20-643, limits assumed).
T2 construct: Analyte of the Biacore assay; not shown: His tag
The experiment can be described thus: SPR, Biacore T200, antibody captured on protein A chip, His-HER3 as analyte. How it is done:
Affinity assay by surface plasmon resonance (SPR): antibody kinetics and affinity were determined using Biacore T200. Briefly, the recombinant human HER3 antibody was immobilized on a protein A chip (GE, Cat. 29-1275-5).
The binding affinity of humanized 3F8 (hu3F8) and chimeric 3F8. Binding kinetics of 3 humanized 3F8 clones and chimeric 3F8 were determined by Biacore. Three humanized 3F8 clones (clone 1, clone 2 and clone 3) had different heavy chains and one identical light chain. Clone 1, clone 2, and clone 3 corresponded to hu3F8-1, hu3F8-2, and hu3F8-3, respectively.

Experiment [7] deals with T1, human HER3-huFc. Briefly: ELISA after 0 h of incubation at pH 3.5. As to the method:
as §1
(§3) EC50 was determined by ELISA.

Experiment [8] deals with T1, human HER3-huFc. The experiment can be described thus: ELISA after 4 h of incubation at pH 3.5. As to the method: as §1, §3
Experiment [9] has as its target T1, human HER3-huFc. The experiment can be described thus: ELISA after 14 days at 40 °C. As to the method:
as §1, §2

The target in experiment [10] is T1, human HER3-huFc. Briefly: ELISA after 6 h of incubation at pH 3.5. How it is done:
as §1, §3

Experiment [11] concerns the target T1, human HER3-huFc. The experiment can be described thus: ELISA, 0 days at 40 °C. How it is done: as §1, §2
Experiment [12] addresses T1, human HER3-huFc. Briefly: ELISA after 2 h of incubation at pH 3.5. As to the method:
as §1, §3

The target of experiment [13] is T1, human HER3-huFc. Briefly: ELISA after 0 h of incubation at pH 3.5; 0 h of incubation at pH 3.5 (untreated time point). How it is done:
as §1, §3

We go through seven molecules from patent US20250295802A1, “HER3 ANTIBODY-DRUG CONJUGATE AND USE THEREOF” (DUALITY BIOLOGICS (SUZHOU) CO., LTD., priority 2022, published 2025).

For Reference ADC-1 (U3-1402) (antibody), in experiment [1], the HCC1569 IC50 (nM), inhibition of in vitro proliferation (CTG, 6 days) came to 40.7 nM and the MDA-MB-453 IC50 (nM), inhibition of in vitro proliferation (CTG, 6 days) turned out to be 9.62 nM.

B1: antibody-drug conjugate ADC-1-X1 (hu3F8-2-X1) (antibody, human IgG1, kappa, V domains shown)
VH: QVQLQESGPGLVKPSETLSLTCTVSGYSITSAYYWNWIRQPFGKGLEWMGYISYDGRNNFNPSLKNRVTISRDTSKNQFSLKLSSVTAADTAVYYCARDGDYDYFDYWGQGTTVTVSS
VL: DIQMTQSPSSLSASVGDRVTITCRASQDISNYLNWYQQKPGKAPKLLIYYTSILHSGVPSRFSGSGSGTDYTFTISSLQPEDIATYFCQQGDTLPPTFGGGTKLEIKR
modifications: linker-payload X1 coupled after TCEP reduction; positions not given; linker-payload X1 coupled after TCEP reduction; positions not given; DAR 7.12 for the whole antibody
On to B1, for which, in experiment [2], the “HCC1569 IC50 (nM), inhibition of in vitro proliferation (CTG, 6 days)” value came to 0.115 nM and the “MDA-MB-453 IC50 (nM), inhibition of in vitro proliferation (CTG, 6 days)” value came to 0.042 nM.

B2: humanized 3F8 antibody hu3F8-2 (antibody, human IgG1, kappa, V domains shown)
VH: QVQLQESGPGLVKPSETLSLTCTVSGYSITSAYYWNWIRQPFGKGLEWMGYISYDGRNNFNPSLKNRVTISRDTSKNQFSLKLSSVTAADTAVYYCARDGDYDYFDYWGQGTTVTVSS
VL: DIQMTQSPSSLSASVGDRVTITCRASQDISNYLNWYQQKPGKAPKLLIYYTSILHSGVPSRFSGSGSGTDYTFTISSLQPEDIATYFCQQGDTLPPTFGGGTKLEIKR
notes: also called Clone 2; clone-2
Regarding B2, the EC50 with human HER3-huFc [3] worked out at 0.0481 µg/mL; in the experiment with human HER3-huFc [4] it was 0.0425 µg/mL; with human HER3-huFc [5] it was 0.0438 µg/mL; in the experiment with human HER3-huFc [6], 0.0467 µg/mL; with human HER3-huFc [7], 0.045 µg/mL; with human HER3-huFc [8], 0.0445 µg/mL. Also, the EC50 is 0.052 µg/mL in the experiment with human HER3-huFc [9], 0.0412 µg/mL with human HER3-huFc [10], 0.0454 µg/mL with human HER3-huFc [11] and 0.0483 µg/mL in the experiment with human HER3-huFc [12]. This molecule also displayed a Kd with His-HER3 of 0.492 nM. The koff with His-HER3 is 0.000328 s⁻¹. Also, the kon in the experiment with His-HER3 was found to be 666000 M⁻¹ s⁻¹.

B3: antibody-drug conjugate ADC-1-X2 (hu3F8-2-X2) (antibody, human IgG1, kappa, V domains shown)
VH: QVQLQESGPGLVKPSETLSLTCTVSGYSITSAYYWNWIRQPFGKGLEWMGYISYDGRNNFNPSLKNRVTISRDTSKNQFSLKLSSVTAADTAVYYCARDGDYDYFDYWGQGTTVTVSS
VL: DIQMTQSPSSLSASVGDRVTITCRASQDISNYLNWYQQKPGKAPKLLIYYTSILHSGVPSRFSGSGSGTDYTFTISSLQPEDIATYFCQQGDTLPPTFGGGTKLEIKR
modifications: linker-payload X2 coupled after TCEP reduction; positions not given; linker-payload X2 coupled after TCEP reduction; positions not given; DAR 7.53 for the whole antibody
For the molecule B3, in [2], the “HCC1569 IC50 (nM), inhibition of in vitro proliferation (CTG, 6 days)” value amounted to 5.17 nM and the “MDA-MB-453 IC50 (nM), inhibition of in vitro proliferation (CTG, 6 days)” value came out at 0.094 nM.

B4: humanized 3F8 antibody hu3F8-3 (antibody, human IgG1, kappa, V domains shown)
VH: QVQLQESGPGLVKPSETLSLTCTVSGYSITSAYYWNWIRQPFGKGLEWMGYISYDGRNNFNPSLKNRVSISRDTSKNQFSLKLSSVTAADTATYYCARDGDYDYFDYWGQGTTVTVSS
VL: DIQMTQSPSSLSASVGDRVTITCRASQDISNYLNWYQQKPGKAPKLLIYYTSILHSGVPSRFSGSGSGTDYTFTISSLQPEDIATYFCQQGDTLPPTFGGGTKLEIKR
notes: also called Clone 3; clone-3
With B4, the EC50 is 0.047 µg/mL with human HER3-huFc [3]; 0.0423 µg/mL with human HER3-huFc [4]; 0.0336 µg/mL in the experiment with human HER3-huFc [5]; 0.0374 µg/mL in the experiment with human HER3-huFc [6]; 0.0387 µg/mL with human HER3-huFc [7]; 0.0394 µg/mL in the experiment with human HER3-huFc [8]. Also, the EC50 with human HER3-huFc [9] was found to be 0.0413 µg/mL; with human HER3-huFc [10], 0.0381 µg/mL; in the experiment with human HER3-huFc [11], 0.0424 µg/mL; with human HER3-huFc [12], 0.0417 µg/mL. In the experiment with His-HER3, this molecule showed a Kd of 0.54 nM. The molecule also came in with a koff with His-HER3 of 0.000348 s⁻¹. The molecule further displayed a kon in the experiment with His-HER3 of 644000 M⁻¹ s⁻¹.

B5: humanized 3F8 antibody hu3F8-1 (antibody, human IgG1, kappa, V domains shown)
VH: QVQLQESGPGLVKPSETLSLTCTVSGYSITSAYYWNWIRQPPGKGLEWIGYISYDGRNNFNPSLKNRVTISVDTSKNQFSLKLSSVTAADTAVYYCARDGDYDYFDYWGQGTTVTVSS
VL: DIQMTQSPSSLSASVGDRVTITCRASQDISNYLNWYQQKPGKAPKLLIYYTSILHSGVPSRFSGSGSGTDYTFTISSLQPEDIATYFCQQGDTLPPTFGGGTKLEIKR
notes: also called Clone 1; clone-1
B5: the EC50 was determined as 0.0423 µg/mL in the experiment with human HER3-huFc [3]; 0.0454 µg/mL with human HER3-huFc [4]; 0.0386 µg/mL with human HER3-huFc [5]; 0.0443 µg/mL with human HER3-huFc [6]; 0.0409 µg/mL in the experiment with human HER3-huFc [8]; 0.041 µg/mL in the experiment with human HER3-huFc [9]. Besides, the EC50 with human HER3-huFc [10] turned out to be 0.039 µg/mL; in the experiment with human HER3-huFc [13], 0.0387 µg/mL; in the experiment with human HER3-huFc [11], 0.0392 µg/mL; in the experiment with human HER3-huFc [12], 0.0381 µg/mL. Also, binding in the experiment with His-HER3 was put at a Kd of 1.09 nM. The same molecule registered a koff with His-HER3 of 0.000612 s⁻¹. The molecule also displayed a kon with His-HER3 of 560000 M⁻¹ s⁻¹.

B6: chimeric 3F8 antibody (antibody, human IgG1, V domains shown)
VH: DVQLQESGPGLVKPSQSLSLTCSVTGYSITSAYYWNWIRQFPGDKLEWMGYISYDGRNNFNPSLKNRISITRDTSKNQFFLKLNSVTSGDTATYYCARDGDYDYFDYWGQGTTLTVSS
VL: DIQMTQTTSSLSASLGDRVTISCRASQDISNYLNWYQQKPDGTFKLLIYYTSILHSGVPSRFSGSGSGTDYSLTISNLEQEDIATYFCQQGDTLPPTFGAGTKLELK
notes: also called ch3F8; Chimeric antibody
The molecule B6 registered an EC50 with human HER3-huFc [4] of 0.0471 µg/mL. In the experiment with His-HER3, binding was characterised by a dissociation constant (Kd) of 0.624 nM, the koff worked out at 0.000391 s⁻¹ and the kon came out at 628000 M⁻¹ s⁻¹. In addition, a half-maximal effect in the experiment with human HER3-huFc [11] (EC50) was put at 0.0474 µg/mL.
